Reference: PMC11502334, “Fungal glyceraldehyde 3-phosphate dehydrogenase GpdC maintains glycolytic mechanism against reactive nitrogen stress-induced damage” (Frontiers in Microbiology, 2024)

B1: rGpdC (GpdC) (Aspergillus nidulans FGSC A4) (protein)
chain: MAPSINEIPISDSPSACRVGINGFGRIGRNVLRVALARNDIQIVAINHTCTSVQDLIYLIRYDSSMGKLSPDIPIHAISETQISVNGRPIALTSERDLKKLNWAALGAEYVVECTGKFTKRELAQDHITYGGAKRVVISAPSSDSPTYVYGVNADEYRANEETRVISCASCTTNCVTPVLKVLQREFGIAQGFLTTVHAATKSQTVLDGYSKKNRRLGRSVFDNIIPTTTGAAKAIASVLPELTGKVTGASIRVPTPNVSLIDLTVSTETPTSLAEILAAFRRAAKNELAGVLSVSDEVLVSSDYLGDSHSAIVDAAACSELNPTFFKIMAWYDNEWGYSSRLLDLTRHIAHNE
notes: recombinant from synthetic E. coli codon-optimized gene, vector pET-21a (Nde I/Hind III), expressed in E. coli BL21 (DE3), HisTrap purified
B2: rGpdA (GpdA) (Aspergillus nidulans FGSC A4) (protein)
chain: MAPKVGINGFGRIGRIVFRNAIEAGTVDVVAVNDPFIETHYAAYMLKYDSQHGQFKGTIETYDEGLIVNGKKIRFHTERDPANIPWGQDGAEYIVESTGVFTTQEKASAHLKGGAKKVVISAPSADAPMFVMGVNNETYKKDIQVLSNASCTTNCLAPLAKVINDNFGIIEGLMTTVHSYTATQKVVDGPSAKDWRGGRTAATNIIPSSTGAAKAVGKVIPSLNGKLTGMAMRVPTSNVSVVDLTVRTEKAVTYDQIKDAVKKASENELKGILGYTEDDIVSTDLNGDTRSSIFDAKAGIALNSNFIKLVSWYDNEWGYSRRVVDLITYISKVDAQ
notes: recombinant from cDNA, vector pET-21a, expressed in E. coli BL21 (DE3), HisTrap purified

How the values were obtained:
Experiment in all cases: purified protein
Format in all cases: biochemical, Aspergillus nidulans
purified protein [1] = substrate: NC(=O)c1ccc[n+]([C@@H]2O[C@H](COP(=O)(O)OP(=O)(O)OC[C@H]3O[C@@H](n4cnc5c(N)ncnc54)[C@H](OP(=O)(O)O)[C@@H]3O)[C@@H](O)[C@H]2O)c1; details: GAP as co-substrate, 30 mM sodium pyrophosphate, 10 mM potassium phosphate, pH 8.4, 25°C, varied: cofactor
purified protein [2] = substrate: NC(=O)c1ccc[n+]([C@@H]2O[C@H](COP(=O)(O)OP(=O)(O)OC[C@H]3O[C@@H](n4cnc5c(N)ncnc54)[C@H](O)[C@@H]3O)[C@@H](O)[C@H]2O)c1; details: GAP as co-substrate, 30 mM sodium pyrophosphate, 10 mM potassium phosphate, pH 8.4, 25°C, varied: cofactor
purified protein [3] = substrate: O=C[C@H](O)COP(=O)(O)O; details: 30 mM sodium pyrophosphate, 10 mM potassium phosphate, pH 8.4, 25°C
[4] = co-substrate (NAD+ or NADP+) not given

| Protein | Km (purified protein [1]) [µM] | kcat (purified protein [1]) [s⁻¹] | kcat/Km (purified protein [1]) [M⁻¹ s⁻¹] | Km (purified protein [2]) [µM] | kcat (purified protein [2]) [s⁻¹] | kcat/Km (purified protein [2]) [M⁻¹ s⁻¹] | Km (purified protein [3]; [4]) [µM] | kcat (purified protein [3]; [4]) [s⁻¹] | kcat/Km (purified protein [3]; [4]) [M⁻¹ s⁻¹] | Km (purified protein [3]; NAD+ as co-substrate) [µM] | kcat (purified protein [3]; NAD+ as co-substrate) [s⁻¹] | kcat/Km (purified protein [3]; NAD+ as co-substrate) [M⁻¹ s⁻¹] |
| --- | --- | --- | --- | --- | --- | --- | --- | --- | --- | --- | --- | --- |
| B1 | 47 ± 2 | 8.83 ± 0.5 | 183000 ± 16700 | 420 ± 20 | 4 ± 0.333 | 9330 ± 333 | 290 ± 20 | 2.67 ± 0.333 | 9170 ± 333 |  |  |  |
| B2 |  |  |  | 180 ± 30 | 85 ± 3.33 | 467000 ± 117000 |  |  |  | 410 ± 90 | 55 ± 3.33 | 132000 ± 40000 |
